This note sets out measurements from patent US20230322950A1 (Hoffmann-La Roche, published 2023).

Where two headings read alike, the source gives them in different places.

The target of test [1] is T1, VH3VL1-CD8ATD-CD137CSD-CD3zSSD fusion.
T1 construct: also called VH3VL1 P329G-CAR
Briefly: Jurkat NFAT luciferase reporter assay with CD20-positive WSUDLCL2 target cells (5:1); no reporter activation, which the filing uses to exclude unspecific binding. In general terms: Reporter assays use an easily measured gene product as a stand-in for the process of interest.
Protocol: (§1) Binding of the CAR to an immobilized adapter molecule (e.g. a tumor antigen bound adapter molecule) leads to CAR crosslinking resulting in T cell activation and in the expression of luciferase. […] The 384 well plate was centrifuged for 1 min at 300g and RT and incubated at 37° C. and 5% CO₂ in a humidity atmosphere. After 7h incubation 20% of the final volume of ONE-Glo™ Luciferase Assay (E6120, Promega) was added, and plates were centrifuged for 1 min at 350×g. Afterwards, the relative luminescence units (RLU) per s/well were measured immediately using a Tecan microplate reader. Concentration-response curves were fitted and EC₅₀ values were calculated using GraphPadPrism version 7. As p value the New England Journal of Medicine style was used as listed in GraphPadPrism 7. Meaning*=P≤0,033; **=P≤0,002; ***=P≤0.001.

Test [2] concerns the target T2, VH2VL1-CD8ATD-CD137CSD-CD3zSSD fusion.
T2 construct: Chimeric antigen receptor expressed on Jurkat NFAT reporter cells; also called VH2VL1 P329G-CAR
The description is as above.
Protocol: as §1

Test [3] deals with T3, VH1VL1-CD8ATD-CD137CSD-CD3zSSD fusion.
T3 construct: Chimeric antigen receptor expressed on Jurkat NFAT reporter cells; also called VH1VL1 P329G-CAR
T3 sequence (chain, as listed by the source): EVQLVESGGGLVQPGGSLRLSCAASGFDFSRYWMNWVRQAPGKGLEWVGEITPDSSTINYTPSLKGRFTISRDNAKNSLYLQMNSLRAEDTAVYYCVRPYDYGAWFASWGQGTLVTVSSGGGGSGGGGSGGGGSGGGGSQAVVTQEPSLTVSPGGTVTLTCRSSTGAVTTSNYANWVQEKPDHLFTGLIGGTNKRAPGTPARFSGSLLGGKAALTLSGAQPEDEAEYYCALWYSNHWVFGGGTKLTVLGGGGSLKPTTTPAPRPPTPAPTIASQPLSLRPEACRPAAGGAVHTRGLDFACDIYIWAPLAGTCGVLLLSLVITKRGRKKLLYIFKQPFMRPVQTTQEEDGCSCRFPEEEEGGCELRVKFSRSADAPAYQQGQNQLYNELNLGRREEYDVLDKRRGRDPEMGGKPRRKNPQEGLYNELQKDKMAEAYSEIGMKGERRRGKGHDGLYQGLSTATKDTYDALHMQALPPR
The description is as above.
Protocol: as §1

Test [4] has as its target T4, VL1VH3-CD8ATD-CD137CSD-CD3zSSD fusion.
T4 construct: Chimeric antigen receptor with the scFv in VL-VH order, expressed on Jurkat NFAT reporter cells; also called VL1VH3 P329G-CAR
The test is described as above.
Protocol: as §1

Test [5] addresses T1, VH3VL1-CD8ATD-CD137CSD-CD3zSSD fusion. Briefly: cell-based or functional assay.
Test [6] has as its target T2, VH2VL1-CD8ATD-CD137CSD-CD3zSSD fusion. Briefly: cell-based or functional assay.
The target of test [7] is T3, VH1VL1-CD8ATD-CD137CSD-CD3zSSD fusion. Briefly: cell-based or functional assay.
For test [8], the target named is T4, VL1VH3-CD8ATD-CD137CSD-CD3zSSD fusion. Briefly: cell-based or functional assay.
T4 sequence (chain, as listed by the source): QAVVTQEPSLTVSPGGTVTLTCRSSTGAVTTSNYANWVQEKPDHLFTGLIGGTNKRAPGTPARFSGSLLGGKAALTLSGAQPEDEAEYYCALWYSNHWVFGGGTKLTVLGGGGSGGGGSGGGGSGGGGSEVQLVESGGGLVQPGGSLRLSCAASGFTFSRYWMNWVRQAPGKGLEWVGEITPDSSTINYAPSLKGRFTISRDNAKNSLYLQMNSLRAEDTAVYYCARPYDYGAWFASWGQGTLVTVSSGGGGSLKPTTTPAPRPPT
Test [9] concerns the target T1, VH3VL1-CD8ATD-CD137CSD-CD3zSSD fusion. Briefly: cell-based or functional assay. This is another data set of the same source.
Test [10] concerns the target T2, VH2VL1-CD8ATD-CD137CSD-CD3zSSD fusion. Briefly: cell-based or functional assay. This is another data set of the same source.
Test [11] has as its target T3, VH1VL1-CD8ATD-CD137CSD-CD3zSSD fusion. Briefly: cell-based or functional assay. This is another data set of the same source.
Test [12] concerns the target T4, VL1VH3-CD8ATD-CD137CSD-CD3zSSD fusion. Briefly: cell-based or functional assay. The source holds these as a separate data set.
Test [13] has as its target T1, VH3VL1-CD8ATD-CD137CSD-CD3zSSD fusion. Briefly: Jurkat NFAT luciferase reporter assay with CD20-positive WSUDLCL2 target cells (5:1); no reporter activation, which the filing uses to exclude unspecific binding. This is another data set of the same source.
Protocol: as §1
In test [14] the target is T2, VH2VL1-CD8ATD-CD137CSD-CD3zSSD fusion. Described as above. The source holds these as a separate data set.
T2 sequence (chain, as listed by the source): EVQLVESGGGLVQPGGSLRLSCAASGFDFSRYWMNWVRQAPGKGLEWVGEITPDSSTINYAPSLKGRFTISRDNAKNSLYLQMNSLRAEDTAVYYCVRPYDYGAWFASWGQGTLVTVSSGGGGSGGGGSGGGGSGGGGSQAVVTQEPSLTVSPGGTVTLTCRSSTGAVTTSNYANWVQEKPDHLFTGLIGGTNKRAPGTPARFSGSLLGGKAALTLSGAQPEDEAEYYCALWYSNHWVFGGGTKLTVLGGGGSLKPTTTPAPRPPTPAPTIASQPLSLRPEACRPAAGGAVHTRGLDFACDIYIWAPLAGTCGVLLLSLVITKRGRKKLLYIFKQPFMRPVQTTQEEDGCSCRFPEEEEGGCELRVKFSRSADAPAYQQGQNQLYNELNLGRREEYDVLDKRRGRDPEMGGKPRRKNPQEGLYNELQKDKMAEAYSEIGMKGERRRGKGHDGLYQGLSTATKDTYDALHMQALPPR
Protocol: as §1
In test [15] the target is T3, VH1VL1-CD8ATD-CD137CSD-CD3zSSD fusion. The test is described as above. The source holds these as a separate data set.
Protocol: as §1
Test [16] deals with T4, VL1VH3-CD8ATD-CD137CSD-CD3zSSD fusion. The description is as above. This is another data set of the same source.
Protocol: as §1

T1 sequence (chain, as listed by the source): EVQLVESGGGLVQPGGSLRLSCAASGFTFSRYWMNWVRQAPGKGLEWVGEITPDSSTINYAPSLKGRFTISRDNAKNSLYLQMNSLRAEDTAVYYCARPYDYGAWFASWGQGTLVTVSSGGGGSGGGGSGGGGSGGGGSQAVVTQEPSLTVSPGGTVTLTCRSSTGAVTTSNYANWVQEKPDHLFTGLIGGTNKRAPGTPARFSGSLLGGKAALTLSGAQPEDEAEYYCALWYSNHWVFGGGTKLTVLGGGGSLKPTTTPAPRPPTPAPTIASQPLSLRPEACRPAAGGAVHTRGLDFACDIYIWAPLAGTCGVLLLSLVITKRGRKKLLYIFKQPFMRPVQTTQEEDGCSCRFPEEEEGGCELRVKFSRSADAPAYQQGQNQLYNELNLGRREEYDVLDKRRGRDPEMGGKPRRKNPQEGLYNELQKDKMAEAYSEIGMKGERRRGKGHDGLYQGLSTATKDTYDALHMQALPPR

B1: anti-CD20 (GA101) wild type IgG1 (antibody)
heavy: not shown
light: DIVMTQTPLSLPVTPGEPASISCRSSKSLLHSNGITYLYWYLQKPGQSPQLLIYQMSNLVSGVPDRFSGSGSGTDFTLKISRVEAEDVGVYYCAQNLELPYTFGGGTKVEIKRTVAAPSVFIFPPSDEQLKSGTASVVCLLNNFYPREAKVQWKVDNALQSGNSQESVTEQDSKDSTYSLSSTLTLSKADYEKHKVYACEVTHQGLSSPVTKSFNRGEC
notes: also called GA101 Fc wildtyp
Turning to B1, the binding result in test [1], in test [2], in test [3] and in [4] was “no binding (tested: 67 nM)” each time. For the same molecule, the “EC50 printed in the drawn table (row 'VH3 x VL1') for the Jurkat NFAT reporter assay with WSUDLCL2 cells; it is a fit of a flat curve at background and no activation is seen” value in [5] is about 85 pM. The “EC50 printed in the drawn table (row 'VH2 x VL1') for the Jurkat NFAT reporter assay with WSUDLCL2 cells; it is a fit of a flat curve at background and no activation is seen” value in [6] came out at 0.000119 pM. Further, the “EC50 printed in the drawn table (row 'VH1 x VL1') for the Jurkat NFAT reporter assay with WSUDLCL2 cells; it is a fit of a flat curve at background and no activation is seen” value in test [7] is about 2.19 pM. For the same molecule, the “EC50 printed in the drawn table (row 'VL1 x VH 3') for the Jurkat NFAT reporter assay with WSUDLCL2 cells; it is a fit of a flat curve at background and no activation is seen” value in test [8] is about 78.3 pM.

B2: anti-CD20 (GA101) LALA IgG1 (antibody)
heavy: not shown
light: DIVMTQTPLSLPVTPGEPASISCRSSKSLLHSNGITYLYWYLQKPGQSPQLLIYQMSNLVSGVPDRFSGSGSGTDFTLKISRVEAEDVGVYYCAQNLELPYTFGGGTKVEIKRTVAAPSVFIFPPSDEQLKSGTASVVCLLNNFYPREAKVQWKVDNALQSGNSQESVTEQDSKDSTYSLSSTLTLSKADYEKHKVYACEVTHQGLSSPVTKSFNRGEC
In the case of B2, the “EC50 printed in the drawn table (row 'VH3 x VL1') for the Jurkat NFAT reporter assay with WSUDLCL2 cells; it is a fit of a flat curve at background and no activation is seen” value in test [9] is about 1.61e+07 mM. In test [10], the “EC50 printed in the drawn table (row 'VH2 x VL1') for the Jurkat NFAT reporter assay with WSUDLCL2 cells; it is a fit of a flat curve at background and no activation is seen” value was about 0 nM. For the same molecule, in test [11], the “EC50 printed in the drawn table (row 'VH1 x VL1') for the Jurkat NFAT reporter assay with WSUDLCL2 cells; it is a fit of a flat curve at background and no activation is seen” value was about 0.0485 pM. In [12], the “EC50 printed in the drawn table (row 'VL1 x VH 3') for the Jurkat NFAT reporter assay with WSUDLCL2 cells; it is a fit of a flat curve at background and no activation is seen” value is about 0.000234 pM. Further, the binding result in test [13], in test [14], in test [15] and in [16] was “no binding (tested: 67 nM)” each time.
